Here are results for one substance from PMC11673460.

In the assay the target is cobalamin binding domain of CarH from Thermus thermophilus (Thermus thermophilus).

Consider “cobalamin binding domain of CarH from Thermus thermophilus (domain or fragment)”, for which the aggregation ratio (area of bacteria in aggregates/total area occupied by all bacteria) of E. coli MG1655 displaying CarH (CarH‐eCPX), with AdoB12Cy5, in the dark turned out to be 50%; the aggregation ratio of CarH‐displaying E. coli with AdoB12Cy5 under green or red light (aggregates not separated by far‐red light) is less than 20%; the aggregation ratio of CarH‐displaying E. coli with AdoB12Cy7.5 under green, red or far‐red light is less than 20%; the aggregation ratio of CarH‐displaying E. coli with AdoB12 under green light (aggregates stable under red and far‐red light) is less than 20%. Besides, the aggregation ratio of E. coli MG1655 displaying CarH (CarH‐eCPX), with AdoB12, in the dark was 50% and the aggregation ratio of E. coli MG1655 displaying CarH (CarH‐eCPX), with AdoB12Cy7.5, in the dark is 50%.
